# From the supplement of paper PMC7125110
# Fewer inactive variants are shown than the library holds.
# B1: glmS ribozyme (parent)
# chain: AUAAAAGCGCCAGAACUACAGAAAUGUAGUUGACGAGGAGGAGGUUUAUCGAAUUUUCGGCGGAUGCCUCCAAA
# Tests used:
# Details in all cases: with glucosamine-6-phosphate
# glucosamine-6-phosphate [1] = variants of: B1; assay: self-cleavage kobs at 40 uM GlcN6P; higher = faster cleavage; RNA array
# Outline: (§1)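 Barcoded ribozyme variants, transcribed in situ by E. coli RNA polymerase on sequenced MiSeq chips, were followed via a hybridised Cy3 probe at 37 °C. Glucosamine-6-phosphate ranged from 40 μM to 10 mM in HEPES/KCl/Mg(OAc)2 buffer. kobs came from decay fits to per-tile medians, and kcat and KM from weighted Michaelis–Menten fits.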
# glucosamine-6-phosphate [2] = variants of: B1; assay: self-cleavage kobs at 640 uM GlcN6P; higher = faster cleavage; RNA array
# Outline: as §1
# glucosamine-6-phosphate [3] = variants of: B1; assay: self-cleavage kobs at 2500 uM GlcN6P; higher = faster cleavage; RNA array
# Outline: as §1
# glucosamine-6-phosphate [4] = variants of: B1; assay: self-cleavage kobs at 10000 uM GlcN6P; higher = faster cleavage; RNA array
# Outline: as §1
# glucosamine-6-phosphate [5] = variants of: B1; assay: self-cleavage kobs at 160 uM GlcN6P; higher = faster cleavage; RNA array
# Outline: as §1
Variant,self-cleavage kobs at 40 uM GlcN6P (glucosamine-6-phosphate [1]) [s⁻¹],self-cleavage kobs at 640 uM GlcN6P (glucosamine-6-phosphate [2]) [s⁻¹],self-cleavage kobs at 2500 uM GlcN6P (glucosamine-6-phosphate [3]) [s⁻¹],self-cleavage kobs at 10000 uM GlcN6P (glucosamine-6-phosphate [4]) [s⁻¹],self-cleavage kobs at 160 uM GlcN6P (glucosamine-6-phosphate [5]) [s⁻¹]
AUAAAAGCGCCAGAACUACAGAAAUGUAGUUGACGAGCAGGAGGUUUAUCGAAUUUUUGGCGGAUGCCUCCAAA,< 1e-05,< 1e-05,< 1e-05,< 1e-05,
AUAAAAGCGCCAGAACUACAGAAAUGUAGUUGACGAGAAGGAGGUUUAUCGAAUUUUUGGCGGAUGCCCCCAAA,< 1e-05,,,< 1e-05,
AUAAAAGCGCCAGAACUACAGAAAUGUAGUUGACGAGAAGAAGGUUUAUCGAAUUUUCGGCGCAUGCCUCCAAA,< 1e-05,,,,
AUAAAAGCGCCAGAACUACAGAAAUGUAGUUGACGAGAAGGAGGUUUAUCGUAUUUUCGGCGGAUGCCUCUAAA,< 1e-05,,,< 1e-05,
AUAAAAGCGCCAGAACUACAGAAAUGUAGUUGACGAGCAGGAGGUUUAUCGAAUAUUCGGCGUAUGCCUCCAAA,< 1e-05,< 1e-05,< 1e-05,,
AUAAAAGCGCCAGAACUACAGAAAUGUAGUUGACGAGCAGAAGGUUUAUCGAAUUUUCGGCGGAUGCCUCCAAA,< 1e-05,< 1e-05,< 1e-05,< 1e-05,< 1e-05
AUAAAAGCGCCAGAACUACAGAAAUGUAGUUGACGAGAAGGAGGUCUAUCGACCUUUCGGCGGAUGCAUCCAAA,< 1e-05,,,< 1e-05,
AUAAAAGCGCCAGAACUACAGAAAUGUAGUUGACGAUGAGGAGGUUUAUCGAAUUUUCGCCGGAUGCCUCCAAA,< 1e-05,< 1e-05,,,< 1e-05
AUAAAAGCGCCAGAACUACAGAAAUGUAGUUGACGAGAAGGAGCUUAAUCGAAUUUUCGGCGGAUGCCUCCAAA,< 1e-05,,,< 1e-05,
AUAAAAGCGCCAGAACUACAGAAAUGUAGUUGACGAUGAAGAGGUUUAUCGAAUUUUCUGCGGAUGCCUCCAAA,< 1e-05,,< 1e-05,< 1e-05,
AUAAAAGCGCCAGAACUACAGAAAUGUAGUUGACGAUGAUGAGGCUUAUCGAAUUUUCGGCGGAUGCCUCCAAA,< 1e-05,,,< 1e-05,
AUAAAAGCGCCAGAACUACAGAAAUGUAGUUGACGAGAAGGUGUUUUGUCGAAUUUUCGGCGGAUGCCUCCAAA,< 1e-05,,,,
AUAAAAGCGCCAGAACUACAGAAAUGUAGUUGACGAUGGGGAGGUUUAUCGAAUUUUCGGCGGAUGCCUCCAAA,< 1e-05,,< 1e-05,,
AUAAAAGCGCCAGAACUACAGAAAUGUAGUUGACGAUGACGAGGUUUAUCGAAUUUUCGGCGGUUGCCUCCAAA,< 1e-05,,,< 1e-05,
AUAAAAGCGCCAGAACUACAGAAAUGUAGUUGACGAGAAGGAGGUUUAUCGAAUUUGCGGCGGAUGCCUCCAAA,< 1e-05,< 1e-05,< 1e-05,< 1e-05,
AUAAAAGCGCCAGAACUACAGAAAUGUAGUUGACGACGAGGAGGUUUAUCGAAACUUCGGCGCAUGCCGCCAAA,< 1e-05,,,< 1e-05,
AUAAAAGCGCCAGAACUACAGAAAUGUAGUUGACGAGAAGGAGGUUUACCGAAUUUUCGGCGGAUGCCUCCAAA,< 1e-05,,< 1e-05,,
AUAAAAGCGCCAGAACUACAGAAAUGUAGUUGACGAGAAGGAGGUUUUUCGAAUUUUCGGCGGAUGCCUCCAAA,< 1e-05,< 1e-05,,< 1e-05,
AUAAAAGCGCCAGAACUACAGAAAUGUAGUUGACGAGAAGGAAGUUUAUCGAAUUUUCGGCGGAUGCCUCCAAA,< 1e-05,< 1e-05,,< 1e-05,
AUAAAAGCGCCAGAACUACAGAAAUGUAGUUGACGAGAAGGAUGUUUAUCGAAUUUUCGGCGGAUGCCUCCAAA,< 1e-05,< 1e-05,,< 1e-05,< 1e-05
AUAAAAGCGCCAGAACUACAGAAAUGUAGUUGACGACGAGGAGGGUUAUCGAAUUUUCGGCGGAUGCCUCCAAA,< 1e-05,< 1e-05,,,< 1e-05
AUAAAAGCGCCAGAACUACAGAAAUGUAGUUGACGAUGAGCAGGUUUAUCGAAUUUUCGGCGGAUGACUCCAAA,< 1e-05,,,,
AUAAAAGCGCCAGAACUACAGAAAUGUAGUUGACGAUGAGGAGGUUUAUCGAAUUUUCUGCGGAUGCCUCCAAA,< 1e-05,< 1e-05,,,
AUAAAAGCGCCAGAACUACAGAAAUGUAGUUGACGAGAAAGAGGUUUAUCGAAUUUUCGGCGGAUGCCUCCAAA,< 1e-05,< 1e-05,< 1e-05,< 1e-05,< 1e-05
AUAAAAGCGCCAGAACUACAGAAAUGUAGUUGACGAGAAGGAGGCUUAUCGAAUUUUCGGCGGAUGCCUCCAAA,< 1e-05,< 1e-05,< 1e-05,< 1e-05,< 1e-05
AUAAAAGCGCCAGAACUACAGAAAUGUAGUUGACGAUGUGGAGGGUUAUCAAAUUUUCAGCGGAUGCCUCCAAA,< 1e-05,,,,
AUAAAAGCGCCAGAACUACAGAAAUGUAGUUGACGAUGAGCAGGUUUAUCGAAUUUUCGGCGGAUGCCUUCAAA,< 1e-05,,,,
AUAAAAGCGCCAGAACUACAGAAAUGUAGUUGACGAGAAGGAGGUUUAUCGAAUUUUUUGCGGAUGCCUCCAAA,< 1e-05,,,< 1e-05,
AUAAAAGCGCCAGAACUACAGAAAUGUAGUUGACGAGCAGGAGUUUUAUCGAAUUUUUGGCGGUUGCCUCCAAA,< 1e-05,,,< 1e-05,
